In test [1] the target is IL-6/sIL-6R complex (100 ng/ml IL-6 + 50 ng/ml sIL-6R) (UniProt P05231). In words: cell-based or functional assay.
In test [2] the target is hyper-IL-6 (H-IL-6), a fusion protein comprising IL-6+sIL-6R (UniProt P08887). The experiment in a line: cell-based or functional assay.
Chain of hyper-IL-6 (H-IL-6), a fusion protein comprising IL-6+sIL-6R (P08887 20-323 limits assumed, chain 1 of 2): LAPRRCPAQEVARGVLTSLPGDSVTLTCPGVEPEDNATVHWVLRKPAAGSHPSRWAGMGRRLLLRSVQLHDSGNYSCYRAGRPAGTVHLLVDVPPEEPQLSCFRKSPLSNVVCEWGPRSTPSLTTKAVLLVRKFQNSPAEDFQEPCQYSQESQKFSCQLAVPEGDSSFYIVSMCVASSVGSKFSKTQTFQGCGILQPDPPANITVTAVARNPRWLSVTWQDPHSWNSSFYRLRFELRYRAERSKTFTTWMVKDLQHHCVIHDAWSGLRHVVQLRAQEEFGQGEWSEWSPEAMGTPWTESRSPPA
Chain of hyper-IL-6 (H-IL-6), a fusion protein comprising IL-6+sIL-6R (P05231 30-212 limits assumed, chain 2 of 2, further chain): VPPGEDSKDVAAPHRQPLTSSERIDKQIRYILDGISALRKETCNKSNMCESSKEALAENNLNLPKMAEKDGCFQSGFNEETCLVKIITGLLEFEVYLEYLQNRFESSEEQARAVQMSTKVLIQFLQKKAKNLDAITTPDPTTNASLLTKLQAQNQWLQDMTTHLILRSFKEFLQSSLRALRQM

Chain of IL-6/sIL-6R complex (100 ng/ml IL-6 + 50 ng/ml sIL-6R) (P05231 30-212 limits assumed, chain 1 of 2): as the sequence (P05231 30-212 limits assumed, chain 2 of 2, further chain) above
Chain of IL-6/sIL-6R complex (100 ng/ml IL-6 + 50 ng/ml sIL-6R) (P08887 20-358 limits assumed, chain 2 of 2, further chain): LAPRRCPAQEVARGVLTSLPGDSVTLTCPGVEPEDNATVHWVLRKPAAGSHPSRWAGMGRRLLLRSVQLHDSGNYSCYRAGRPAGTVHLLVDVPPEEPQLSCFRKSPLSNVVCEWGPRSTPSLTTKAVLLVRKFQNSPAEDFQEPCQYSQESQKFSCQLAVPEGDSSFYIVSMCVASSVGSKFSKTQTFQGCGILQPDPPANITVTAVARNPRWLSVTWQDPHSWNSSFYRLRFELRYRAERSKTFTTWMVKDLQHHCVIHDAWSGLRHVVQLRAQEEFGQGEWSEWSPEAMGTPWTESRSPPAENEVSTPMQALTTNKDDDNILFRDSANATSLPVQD

B1: sgp130PEG (PEGylated sgp130(D1-D3)-Pn dimer) (receptor, part only)
chain: MLTLQTWVVQALFIFLTTESTGELLDPCGYISPESPVVQLHSNFTAVCVLKEKCMDYFHVNANYIVWKTNHFTIPKEQYTIINRTASSVTFTDIASLNIQLTCNILTFGQLEQNVYGITIISGLPPEKPKNLSCIVNEGKKMRCEWDGGRETHLETNFTLKSEWATHKFADCKAKRDTPTSCTVDYSTVYFVNIEVWVEAENALGKVTSDHINFDPVYKVKPNPPHNLSVINSEELSSILKLTWTNPSIKSVIILKYNIQYRTKDASTWSQIPPEDTASTRSSFTVQDLKPFTEYVFRIRCMKEDGKGYWSDWSEEASGITYEDRP
modifications: C-terminal Pn cysteine peptide unsequenced; PEGylated; disulfide dimer
Turning to B1, in test [1], the factor of improvement over sgp130Fc in inhibition of BAF/gp130 proliferation (fold vs sgp130Fc) lay in the range of 1.5 to 3 and the half-maximal [3H]-thymidine incorporation of BAF/gp130 cells (proliferation) fell in the range of 1 to 5 ng/mL. In test [2], this molecule returned an STAT3 activity (relative luciferase activity, pSTAT3-TA-Luc reporter in BAF/gp130 cells) at 10 ug/ml inhibitor, 5 ng/ml H-IL-6 (% of activity with H-IL-6 alone) of 18; a concentration giving half-maximal activation of STAT3 (H-IL-6-induced, luciferase reporter in BAF/gp130 cells) of 2.5 µg/mL; an efficiency relative to sgp130Fc in inhibition of H-IL-6-induced STAT3 activation (fold vs sgp130Fc) of 2 to 3; a factor of improvement over sgp130Fc in inhibition of BAF/gp130 proliferation (fold vs sgp130Fc) of 1.5 to 3. In test [2], this molecule registered a half-maximal [3H]-thymidine incorporation of BAF/gp130 cells (proliferation) of 1 to 5 ng/mL.
